Target: IgG4 control antibody
Assay: BLI; Octet RED96; antibodies captured on FABG2 biosensor tips, recombinant FcRn in solution; association studied at physiological pH, dissociation at pH6

Sequence of mouse FcγRIV (A0A0B4J1G0 21-249): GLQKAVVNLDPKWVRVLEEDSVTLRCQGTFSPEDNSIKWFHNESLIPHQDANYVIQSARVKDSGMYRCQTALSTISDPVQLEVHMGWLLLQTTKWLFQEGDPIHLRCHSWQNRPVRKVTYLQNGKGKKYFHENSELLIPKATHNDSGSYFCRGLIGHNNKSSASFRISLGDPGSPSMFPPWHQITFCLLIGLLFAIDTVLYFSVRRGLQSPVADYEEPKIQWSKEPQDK
Sequence of mouse FcγRI (P26151 25-404): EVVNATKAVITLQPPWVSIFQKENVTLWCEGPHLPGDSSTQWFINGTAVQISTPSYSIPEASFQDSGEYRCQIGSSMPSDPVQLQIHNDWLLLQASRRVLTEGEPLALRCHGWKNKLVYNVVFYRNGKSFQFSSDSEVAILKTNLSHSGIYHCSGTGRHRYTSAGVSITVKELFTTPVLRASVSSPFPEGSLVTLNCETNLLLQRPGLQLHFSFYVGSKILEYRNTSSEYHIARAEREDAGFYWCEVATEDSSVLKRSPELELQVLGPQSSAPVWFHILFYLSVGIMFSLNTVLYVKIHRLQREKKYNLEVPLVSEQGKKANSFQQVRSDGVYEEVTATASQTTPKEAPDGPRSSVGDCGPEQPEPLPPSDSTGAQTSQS
Sequence of human FcRn (P55899 24-365): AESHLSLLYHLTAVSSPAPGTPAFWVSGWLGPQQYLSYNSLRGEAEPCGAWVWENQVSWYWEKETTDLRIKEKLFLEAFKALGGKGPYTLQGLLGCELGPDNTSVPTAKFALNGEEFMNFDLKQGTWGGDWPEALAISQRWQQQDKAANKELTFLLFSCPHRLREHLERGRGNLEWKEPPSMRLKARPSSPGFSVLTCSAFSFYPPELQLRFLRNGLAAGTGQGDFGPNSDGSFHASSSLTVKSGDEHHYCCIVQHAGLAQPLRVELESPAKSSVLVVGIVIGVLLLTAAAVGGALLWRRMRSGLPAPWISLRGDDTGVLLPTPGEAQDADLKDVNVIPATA
Sequence of mouse FcRn (Q61559 22-365): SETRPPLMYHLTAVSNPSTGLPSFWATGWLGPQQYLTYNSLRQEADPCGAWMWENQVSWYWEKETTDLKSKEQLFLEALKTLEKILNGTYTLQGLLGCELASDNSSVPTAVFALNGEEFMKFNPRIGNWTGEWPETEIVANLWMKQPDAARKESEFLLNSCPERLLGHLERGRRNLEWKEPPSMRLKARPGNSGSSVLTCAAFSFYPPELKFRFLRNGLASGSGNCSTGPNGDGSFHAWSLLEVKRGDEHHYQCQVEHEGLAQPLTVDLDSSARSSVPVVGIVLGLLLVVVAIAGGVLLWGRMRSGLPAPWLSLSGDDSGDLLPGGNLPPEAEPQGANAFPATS

Row | Kd [nM] | Substance
1 | 600 | human FcRn (from UniProt P55899 24-365) (receptor)
2 | 200 | mouse FcRn (from UniProt Q61559 22-365) (receptor)

Target: IgG4 control antibody
Assay: BLI; Octet RED96; antibodies captured on FABG2 biosensor tips, recombinant Fcγ receptors in solution at suitable concentration ranges; association and dissociation at physiological pH

Row | Kd [nM] | Substance
3 | 600000 | human FcγRIII 176V (from UniProt P08637 17-254) (receptor)
4 | 500 | human FcγRIIa (from UniProt P12318 34-317) (receptor)
5 | 700 | mouse FcγRIIb (from UniProt P08101 30-330) (receptor)

Second part, the substance before the results:

Row | Substance | Kd [nM]
6 | human FcγRIIb (from UniProt P31994 43-310) (receptor) | 600
7 | mouse FcγRI (from UniProt P26151 25-404) (receptor) | 200
8 | mouse FcγRIII (from UniProt P08508 31-261) (receptor) | 100
9 | mouse FcγRIV (from UniProt A0A0B4J1G0 21-249) (receptor) | 2000
